Where a chain is given by its changes, count along the chain named.

First the molecules themselves.
B1: orphan clone 3 (random region) (ssRNA)
RNA: GGGAGACAAGACUAGACGCUCAACUACGAACUCAUGACACAAGGAUGCAAUCUCAUCCCGCCAGCCCUUCGACAUGAGACUCACAACAGUUCCCUUUAGUGAGGGUUAAUU
modifications: 2'-F pyrimidines
B2: orphan clone 5 (random region) (ssRNA)
RNA: GGGAGACAAGACUAGACGCUCAAUAUCAACAUUAGGGCUCCUUGGGGACCAGCGUCUCCUUGCAGCCCCGAUUCGACAUGAGACUCACAACAGUUCCCUUUAGUGAGGGUUAAUU
modifications: 2'-F pyrimidines
B3: Group I clone 1 (random region) (ssRNA)
RNA: GGGAGACAAGACUAGACGCUCAACUUUCCUAGCGCACAUGCGCACCUCUAUGCGUAAUACGAACGUUGACGUUCGACAUGAGACUCACAACAGUUCCCUUUAGUGAGGGUUAAUU
modifications: 2'-F pyrimidines
B4: Group I clone 10 (random region) (ssRNA)
RNA: B3 RNA with U27C, C43U, A69G
modifications: 2'-F pyrimidines
B5: Group I clone 20 (random region) (ssRNA)
RNA: B3 RNA with C46U, A69G
modifications: 2'-F pyrimidines
B6: Group I clone 6 (random region) (ssRNA)
RNA: B3 RNA with U26G, G32A, U39C, A69G
modifications: 2'-F pyrimidines
B7: Group I clone 3 (random region) (ssRNA)
RNA: B3 RNA with U25G, G32A, A69G
modifications: 2'-F pyrimidines
B8: Group I clone 22 (random region) (ssRNA)
RNA: B3 RNA with G32A, C33U
modifications: 2'-F pyrimidines
B9: Group I clone 9 (random region) (ssRNA)
RNA: B3 RNA with U39C, A69G
modifications: 2'-F pyrimidines
B10: Group I clone 13 (random region) (ssRNA)
RNA: B3 RNA with U26C, C33U, A69G
modifications: 2'-F pyrimidines
B11: Group I clone 16 (random region) (ssRNA)
RNA: B3 RNA with C37U, U67C, A69G
modifications: 2'-F pyrimidines
B12: Group I clone 19 (random region) (ssRNA)
RNA: B3 RNA with U51C
modifications: 2'-F pyrimidines
B13: Group I clone 7 (random region) (ssRNA)
RNA: B3 RNA with A69G
modifications: 2'-F pyrimidines
B14: Group I clone 24 (random region) (ssRNA)
RNA: B3 RNA with C33U, C37U, C41U, A69G
modifications: 2'-F pyrimidines
B15: Group I clone 11 (random region) (ssRNA)
RNA: B3 RNA with C28G, A57G, A69G
modifications: 2'-F pyrimidines
B16: Group I clone 23 (random region) (ssRNA)
RNA: B3 RNA with G32A, C37U
modifications: 2'-F pyrimidines
B17: Group I clone 5 (random region) (ssRNA)
RNA: B3 RNA with G32A, U39C, A69G
modifications: 2'-F pyrimidines
B18: Group I clone 4 (random region) (ssRNA)
RNA: B3 RNA with U26C, G32A, A69G
modifications: 2'-F pyrimidines
B19: Group I clone 14 (random region) (ssRNA)
RNA: B3 RNA with C37U, A69G
modifications: 2'-F pyrimidines
B20: Group I clone 2 (random region) (ssRNA)
RNA: B3 RNA with G32A, A69G
modifications: 2'-F pyrimidines
B21: Group I clone 26 (random region) (ssRNA)
RNA: B3 RNA with G32A, C37U, C41U
modifications: 2'-F pyrimidines
B22: Group I clone 15 (random region) (ssRNA)
RNA: B3 RNA with C37U, C48A, A69G
modifications: 2'-F pyrimidines
B23: Group I clone 12 (random region) (ssRNA)
RNA: B3 RNA with U67C, A69G
modifications: 2'-F pyrimidines
B24: Group I clone 17 (random region) (ssRNA)
RNA: B3 RNA with C28G, G42U
modifications: 2'-F pyrimidines
B25: Group I clone 18 (random region) (ssRNA)
RNA: B3 RNA with U67A
modifications: 2'-F pyrimidines
B26: Group I clone 27 (random region) (ssRNA)
RNA: B3 RNA with G32A, G65A, U66G, C70G, G71A
modifications: 2'-F pyrimidines
B27: Group I clone 8 (random region) (ssRNA)
RNA: GGGAGACAAGACUAGACGCUCAACUUUCGCUAGCGCACAUGCGCACCUCUAUGCGCAUAUACGAACGUUGGCGUUCGACAUGAGACUCACAACAGUUCCCUUUAGUGAGGGUUAAUU
modifications: 2'-F pyrimidines
B28: orphan clone 2 (random region) (ssRNA)
RNA: GGGAGACAAGACUAGACGCUCAACUCCUCUAGCACCAUAUCCAAGCUACAACUUCACAACGACUCGGCCUUCGACAUGAGACUCACAACAGUUCCCUUUAGUGAGGGUUAAUU
modifications: 2'-F pyrimidines
B29: orphan clone 4 (random region) (ssRNA)
RNA: GGGAGACAAGACUAGACGCUCAACUACGUUCCUUAUCCUCCCUUCAGGAACCUGUACACCACAUUGCUUCGACAUGAGACUCACAACAGUUCCCUUUAGUGAGGGUUAAUU
modifications: 2'-F pyrimidines
B30: orphan clone 6 (random region) (ssRNA)
RNA: GGGAGACAAGACUAGACGCUCAAGCUGACCACCGCCAACGCAACCUCCAAUGACUUGGAUCACCUAGACGAUUUCGACAUGAGACUCACAACAGUUCCCUUUAGUGAGGGUUAAUU
modifications: 2'-F pyrimidines

For this data set, the target named is prion protein PrP alpha-form, full-length mature, oxidized (Bos taurus, UniProt P10279 P10279:25-241). In words: EMSA. To be noted: tags: 6-octarepeat allele, Met-initiated, E. coli, untagged (Ni-NTA, SP-Sepharose, Superdex 75).
Sequence of prion protein PrP alpha-form, full-length mature, oxidized (P10279 25-241, one chain of several): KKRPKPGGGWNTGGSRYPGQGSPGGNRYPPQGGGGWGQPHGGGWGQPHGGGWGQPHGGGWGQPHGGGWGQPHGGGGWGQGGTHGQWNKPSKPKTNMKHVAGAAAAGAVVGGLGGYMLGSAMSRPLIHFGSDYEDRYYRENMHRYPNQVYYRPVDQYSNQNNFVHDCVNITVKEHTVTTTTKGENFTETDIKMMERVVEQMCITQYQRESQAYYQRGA
As for B1, the binding result is given as “binds”. Next, B2: “binds”; B3: “binds”. With B4, the binding result is reported as “binds”. Turning to B5, the binding result was “binds”. Under B6 stands “binds”; under B7, “binds”; under B8, “binds”. Next, B9: “binds”. On to B10, for which the binding result is on record as “binds”. As for B11, the binding result is listed as “binds”. As to B12, the binding result is given as “binds”. B13: the binding result is reported as “binds”. B14: the binding result is “binds”.

For B15, the binding result was “binds”.

Regarding B16, the binding result is “binds”. As to B17, the binding result is given as “binds”.

Regarding B18, the binding result was “binds”. In the case of B19, the binding result is “binds”.

For B20, the binding result is “binds”. Take B21: the binding result is reported as “binds”. B22: the binding result is given as “binds”. Take B23: the binding result was “binds”. Next, B24: “binds”; B25: “binds”; B26: “binds”. With B27, the binding result is “binds”. Under B28 stands “binds”; under B29, “binds”; under B30, “binds”.
